These are literature values, as cited in paper PMC5989558.

What is called Kd is the constant that tells how readily two partners part at equilibrium.

For this data set, the target named is CD80 (Homo sapiens) (UniProt P33681).
UniProt P33681, sequence (P33681 35-242): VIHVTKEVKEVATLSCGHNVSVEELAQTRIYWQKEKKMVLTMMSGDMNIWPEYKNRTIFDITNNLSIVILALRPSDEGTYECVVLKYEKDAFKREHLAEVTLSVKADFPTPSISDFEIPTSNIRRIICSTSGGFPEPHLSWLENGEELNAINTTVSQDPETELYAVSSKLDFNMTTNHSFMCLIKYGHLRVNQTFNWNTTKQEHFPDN

With CD28 (from UniProt P10747), the Kd was 20 µM.
